In test [1] the target is human CD83, cell surface, on lymphoma cells (human) (UniProt Q01151). Description: flow cytometry, HB15a-FITC on L428 cells, gate placed right of the grey isotype control histogram. A general note: Flow cytometry measures light scatter and fluorescence of single cells or particles in a stream.
Test [2] shares this target. Kind of test: flow cytometry, HB15a-FITC on HDLM2 cells, gate placed right of the grey isotype control histogram.
The target is the same in test [3]. Description: flow cytometry, HB15a-FITC on KM-H2 cells, gate placed right of the grey isotype control histogram.
Test [4] has the same target. Kind of test: flow cytometry, HB15e-FITC on L428 cells, gate placed right of the grey isotype control histogram.
The target is the same in test [5]. Kind of test: flow cytometry, HB15e-FITC on HDLM2 cells, gate placed right of the grey isotype control histogram.
For test [6] the target is unchanged. Kind of test: flow cytometry, HB15e-FITC on KM-H2 cells, gate placed right of the grey isotype control histogram.

Chain of UniProt Q01151 (Q01151 20-205): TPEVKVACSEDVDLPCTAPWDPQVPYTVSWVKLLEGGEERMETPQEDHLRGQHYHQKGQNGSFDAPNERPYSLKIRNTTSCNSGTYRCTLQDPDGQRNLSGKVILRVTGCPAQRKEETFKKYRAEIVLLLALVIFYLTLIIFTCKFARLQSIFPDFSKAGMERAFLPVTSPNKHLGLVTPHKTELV

Consider “HB15a, mouse anti-human CD83 monoclonal antibody (Beckman and Coulter)”, for which the figures for the positive gate (percent of cells in the gate) in test [1], in test [2] and in test [3] were 27.2, 14.7 and 99.5, respectively.
In the case of “HB15e, mouse anti-human CD83 monoclonal antibody (BD Biosciences)”, the positive gate (percent of cells in the gate) in test [4] came out at 60; in test [5] it was 32.5; in test [6], 99.

The values are drawn from US20200277396A1.
